The labels stand for the following.
B1: library; numbered along this chain (parent)
chain: MAAAAAAAAEQQSSNGPVKKSMREKAVERRSVNKEHNSNFKAGYIPIDEDRLHKTGLRGRKGNLAICVIILLFILAVINLIITLVIWAVIRIGPNGCDSMEFHESGLLRFKQVSDMGVIHPLYKSTVGGRRNENLVITGNNQPIVFQQGTTKLSVENNKTSITSDIGMQFFDPRTQNILFSTDYETHEFHLPSGVKSLNVQKASTERITSNATSDLNIKVDGRAIVRGNEGVFIMGKTIEFHMGGNMELKAENSIILNGSVMVSTTRLPSSSSGDQLGSGDWVRYKLCMCADGTLFKVQVTSQNMGCQISDNPCGNTH

This data set covers variants of B1. As to the kind of experiment: SGCB cell-surface expression functional score (HA stain, bin4 vs bin1, normalised to synonymous) (log10 ratio); higher = more cell-surface SGCB (functional). The method, boiled down:
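Sorting and sequencing yield the functional score, defined as the log ratio of a variant's highest-bin frequency to its lowest-bin frequency, with the median taken over codons and replicate transductions. The libraries, codon-saturation sets of HA-tagged, YFP-fused human beta-sarcoglycan, went into HEK293 cells stably carrying alpha-, gamma- and delta-sarcoglycan by duplicate lentiviral transduction at MOI <0.1. Cells were stained on ice with Alexa Fluor 647 anti-HA, fixed and split into four 5% intensity bins, and synonymous variants were scaled per section to mean 0, SD 0.5.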
Regarding MAAAAAAAAEQQSSNGPVKKSMREKAVERRSVNKEHNSNFKAGYIPIDEDRLHKTGLRGRKGNLAICVIILLFILAVINLIITLVIWAVIRIGPNGCDSMEFHESGHLRFKQVSDMGVIHPLYKSTVGGRRNENLVITGNNQPIVFQQGTTKLSVENNKTSITSDIGMQFFDPRTQNILFSTDYETHEFHLPSGVKSLNVQKASTERITSNATSDLNIKVDGRAIVRGNEGVFIMGKTIEFHMGGNMELKAENSIILNGSVMVSTTRLPSSSSGDQLGSGDWVRYKLCMCADGTLFKVQVTSQNMGCQISDNPCGNTH [L107H], the “SGCB cell-surface expression functional score (log10)” value was -0.67.
Take MAAAAAAAAEQQSSNGPVKKSMREKAVERRSVNKEHNSNFKAGYIPIDEDRLHKTGLRGRKGNLAICVIILLFILAVINLIITLVIWAVIRIGPNGCDSMEFHESGCLRFKQVSDMGVIHPLYKSTVGGRRNENLVITGNNQPIVFQQGTTKLSVENNKTSITSDIGMQFFDPRTQNILFSTDYETHEFHLPSGVKSLNVQKASTERITSNATSDLNIKVDGRAIVRGNEGVFIMGKTIEFHMGGNMELKAENSIILNGSVMVSTTRLPSSSSGDQLGSGDWVRYKLCMCADGTLFKVQVTSQNMGCQISDNPCGNTH [L107C]: the “SGCB cell-surface expression functional score (log10)” value turned out to be 0.24.
Next, MAAAAAAAAEQQSSNGPVKKSMREKAVERRSVNKEHNSNFKAGYIPIDEDRLHKTGLRGRKGNLAICVIILLFILAVINLIITLVIWAVIRIGPNGCDSMEFHESGDLRFKQVSDMGVIHPLYKSTVGGRRNENLVITGNNQPIVFQQGTTKLSVENNKTSITSDIGMQFFDPRTQNILFSTDYETHEFHLPSGVKSLNVQKASTERITSNATSDLNIKVDGRAIVRGNEGVFIMGKTIEFHMGGNMELKAENSIILNGSVMVSTTRLPSSSSGDQLGSGDWVRYKLCMCADGTLFKVQVTSQNMGCQISDNPCGNTH [L107D]: -0.74.
Consider MAAAAAAAAEQQSSNGPVKKSMREKAVERRSVNKEHNSNFKAGYIPIDEDRLHKTGLRGRKGNLAICVIILLFILAVINLIITLVIWAVIRIGPNGCDSMEFHESGELRFKQVSDMGVIHPLYKSTVGGRRNENLVITGNNQPIVFQQGTTKLSVENNKTSITSDIGMQFFDPRTQNILFSTDYETHEFHLPSGVKSLNVQKASTERITSNATSDLNIKVDGRAIVRGNEGVFIMGKTIEFHMGGNMELKAENSIILNGSVMVSTTRLPSSSSGDQLGSGDWVRYKLCMCADGTLFKVQVTSQNMGCQISDNPCGNTH [L107E], for which the “SGCB cell-surface expression functional score (log10)” value is -1.14.
Next, MAAAAAAAAEQQSSNGPVKKSMREKAVERRSVNKEHNSNFKAGYIPIDEDRLHKTGLRGRKGNLAICVIILLFILAVINLIITLVIWAVIRIGPNGCDSMEFHESGGLRFKQVSDMGVIHPLYKSTVGGRRNENLVITGNNQPIVFQQGTTKLSVENNKTSITSDIGMQFFDPRTQNILFSTDYETHEFHLPSGVKSLNVQKASTERITSNATSDLNIKVDGRAIVRGNEGVFIMGKTIEFHMGGNMELKAENSIILNGSVMVSTTRLPSSSSGDQLGSGDWVRYKLCMCADGTLFKVQVTSQNMGCQISDNPCGNTH [L107G]: -0.26.
In the case of MAAAAAAAAEQQSSNGPVKKSMREKAVERRSVNKEHNSNFKAGYIPIDEDRLHKTGLRGRKGNLAICVIILLFILAVINLIITLVIWAVIRIGPNGCDSMEFHESGFLRFKQVSDMGVIHPLYKSTVGGRRNENLVITGNNQPIVFQQGTTKLSVENNKTSITSDIGMQFFDPRTQNILFSTDYETHEFHLPSGVKSLNVQKASTERITSNATSDLNIKVDGRAIVRGNEGVFIMGKTIEFHMGGNMELKAENSIILNGSVMVSTTRLPSSSSGDQLGSGDWVRYKLCMCADGTLFKVQVTSQNMGCQISDNPCGNTH [L107F] it was -0.29; in that of MAAAAAAAAEQQSSNGPVKKSMREKAVERRSVNKEHNSNFKAGYIPIDEDRLHKTGLRGRKGNLAICVIILLFILAVINLIITLVIWAVIRIGPNGCDSMEFHESGILRFKQVSDMGVIHPLYKSTVGGRRNENLVITGNNQPIVFQQGTTKLSVENNKTSITSDIGMQFFDPRTQNILFSTDYETHEFHLPSGVKSLNVQKASTERITSNATSDLNIKVDGRAIVRGNEGVFIMGKTIEFHMGGNMELKAENSIILNGSVMVSTTRLPSSSSGDQLGSGDWVRYKLCMCADGTLFKVQVTSQNMGCQISDNPCGNTH [L107I], 0.27; in that of MAAAAAAAAEQQSSNGPVKKSMREKAVERRSVNKEHNSNFKAGYIPIDEDRLHKTGLRGRKGNLAICVIILLFILAVINLIITLVIWAVIRIGPNGCDSMEFHESGALRFKQVSDMGVIHPLYKSTVGGRRNENLVITGNNQPIVFQQGTTKLSVENNKTSITSDIGMQFFDPRTQNILFSTDYETHEFHLPSGVKSLNVQKASTERITSNATSDLNIKVDGRAIVRGNEGVFIMGKTIEFHMGGNMELKAENSIILNGSVMVSTTRLPSSSSGDQLGSGDWVRYKLCMCADGTLFKVQVTSQNMGCQISDNPCGNTH [L107A], -0.67.
Next, MAAAAAAAAEQQSSNGPVKKSMREKAVERRSVNKEHNSNFKAGYIPIDEDRLHKTGLRGRKGNLAICVIILLFILAVINLIITLVIWAVIRIGPNGCDSMEFHESSLLRFKQVSDMGVIHPLYKSTVGGRRNENLVITGNNQPIVFQQGTTKLSVENNKTSITSDIGMQFFDPRTQNILFSTDYETHEFHLPSGVKSLNVQKASTERITSNATSDLNIKVDGRAIVRGNEGVFIMGKTIEFHMGGNMELKAENSIILNGSVMVSTTRLPSSSSGDQLGSGDWVRYKLCMCADGTLFKVQVTSQNMGCQISDNPCGNTH [G106S]: -0.78; MAAAAAAAAEQQSSNGPVKKSMREKAVERRSVNKEHNSNFKAGYIPIDEDRLHKTGLRGRKGNLAICVIILLFILAVINLIITLVIWAVIRIGPNGCDSMEFHESMLLRFKQVSDMGVIHPLYKSTVGGRRNENLVITGNNQPIVFQQGTTKLSVENNKTSITSDIGMQFFDPRTQNILFSTDYETHEFHLPSGVKSLNVQKASTERITSNATSDLNIKVDGRAIVRGNEGVFIMGKTIEFHMGGNMELKAENSIILNGSVMVSTTRLPSSSSGDQLGSGDWVRYKLCMCADGTLFKVQVTSQNMGCQISDNPCGNTH [G106M]: -0.94; MAAAAAAAAEQQSSNGPVKKSMREKAVERRSVNKEHNSNFKAGYIPIDEDRLHKTGLRGRKGNLAICVIILLFILAVINLIITLVIWAVIRIGPNGCDSMEFHESQLLRFKQVSDMGVIHPLYKSTVGGRRNENLVITGNNQPIVFQQGTTKLSVENNKTSITSDIGMQFFDPRTQNILFSTDYETHEFHLPSGVKSLNVQKASTERITSNATSDLNIKVDGRAIVRGNEGVFIMGKTIEFHMGGNMELKAENSIILNGSVMVSTTRLPSSSSGDQLGSGDWVRYKLCMCADGTLFKVQVTSQNMGCQISDNPCGNTH [G106Q]: -1.48.
For MAAAAAAAAEQQSSNGPVKKSMREKAVERRSVNKEHNSNFKAGYIPIDEDRLHKTGLRGRKGNLAICVIILLFILAVINLIITLVIWAVIRIGPNGCDSMEFHESNLLRFKQVSDMGVIHPLYKSTVGGRRNENLVITGNNQPIVFQQGTTKLSVENNKTSITSDIGMQFFDPRTQNILFSTDYETHEFHLPSGVKSLNVQKASTERITSNATSDLNIKVDGRAIVRGNEGVFIMGKTIEFHMGGNMELKAENSIILNGSVMVSTTRLPSSSSGDQLGSGDWVRYKLCMCADGTLFKVQVTSQNMGCQISDNPCGNTH [G106N], the “SGCB cell-surface expression functional score (log10)” value is -0.38.
As to MAAAAAAAAEQQSSNGPVKKSMREKAVERRSVNKEHNSNFKAGYIPIDEDRLHKTGLRGRKGNLAICVIILLFILAVINLIITLVIWAVIRIGPNGCDSMEFHESYLLRFKQVSDMGVIHPLYKSTVGGRRNENLVITGNNQPIVFQQGTTKLSVENNKTSITSDIGMQFFDPRTQNILFSTDYETHEFHLPSGVKSLNVQKASTERITSNATSDLNIKVDGRAIVRGNEGVFIMGKTIEFHMGGNMELKAENSIILNGSVMVSTTRLPSSSSGDQLGSGDWVRYKLCMCADGTLFKVQVTSQNMGCQISDNPCGNTH [G106Y], the “SGCB cell-surface expression functional score (log10)” value was -1.15.
Turning to MAAAAAAAAEQQSSNGPVKKSMREKAVERRSVNKEHNSNFKAGYIPIDEDRLHKTGLRGRKGNLAICVIILLFILAVINLIITLVIWAVIRIGPNGCDSMEFHESWLLRFKQVSDMGVIHPLYKSTVGGRRNENLVITGNNQPIVFQQGTTKLSVENNKTSITSDIGMQFFDPRTQNILFSTDYETHEFHLPSGVKSLNVQKASTERITSNATSDLNIKVDGRAIVRGNEGVFIMGKTIEFHMGGNMELKAENSIILNGSVMVSTTRLPSSSSGDQLGSGDWVRYKLCMCADGTLFKVQVTSQNMGCQISDNPCGNTH [G106W], the “SGCB cell-surface expression functional score (log10)” value is -0.87.
Regarding MAAAAAAAAEQQSSNGPVKKSMREKAVERRSVNKEHNSNFKAGYIPIDEDRLHKTGLRGRKGNLAICVIILLFILAVINLIITLVIWAVIRIGPNGCDSMEFHESRLLRFKQVSDMGVIHPLYKSTVGGRRNENLVITGNNQPIVFQQGTTKLSVENNKTSITSDIGMQFFDPRTQNILFSTDYETHEFHLPSGVKSLNVQKASTERITSNATSDLNIKVDGRAIVRGNEGVFIMGKTIEFHMGGNMELKAENSIILNGSVMVSTTRLPSSSSGDQLGSGDWVRYKLCMCADGTLFKVQVTSQNMGCQISDNPCGNTH [G106R], the “SGCB cell-surface expression functional score (log10)” value was -0.35.
In the case of MAAAAAAAAEQQSSNGPVKKSMREKAVERRSVNKEHNSNFKAGYIPIDEDRLHKTGLRGRKGNLAICVIILLFILAVINLIITLVIWAVIRIGPNGCDSMEFHESVLLRFKQVSDMGVIHPLYKSTVGGRRNENLVITGNNQPIVFQQGTTKLSVENNKTSITSDIGMQFFDPRTQNILFSTDYETHEFHLPSGVKSLNVQKASTERITSNATSDLNIKVDGRAIVRGNEGVFIMGKTIEFHMGGNMELKAENSIILNGSVMVSTTRLPSSSSGDQLGSGDWVRYKLCMCADGTLFKVQVTSQNMGCQISDNPCGNTH [G106V] it was -1.47; in that of MAAAAAAAAEQQSSNGPVKKSMREKAVERRSVNKEHNSNFKAGYIPIDEDRLHKTGLRGRKGNLAICVIILLFILAVINLIITLVIWAVIRIGPNGCDSMEFHESLLLRFKQVSDMGVIHPLYKSTVGGRRNENLVITGNNQPIVFQQGTTKLSVENNKTSITSDIGMQFFDPRTQNILFSTDYETHEFHLPSGVKSLNVQKASTERITSNATSDLNIKVDGRAIVRGNEGVFIMGKTIEFHMGGNMELKAENSIILNGSVMVSTTRLPSSSSGDQLGSGDWVRYKLCMCADGTLFKVQVTSQNMGCQISDNPCGNTH [G106L], -1.62.
For the variant MAAAAAAAAEQQSSNGPVKKSMREKAVERRSVNKEHNSNFKAGYIPIDEDRLHKTGLRGRKGNLAICVIILLFILAVINLIITLVIWAVIRIGPNGCDSMEFHESTLLRFKQVSDMGVIHPLYKSTVGGRRNENLVITGNNQPIVFQQGTTKLSVENNKTSITSDIGMQFFDPRTQNILFSTDYETHEFHLPSGVKSLNVQKASTERITSNATSDLNIKVDGRAIVRGNEGVFIMGKTIEFHMGGNMELKAENSIILNGSVMVSTTRLPSSSSGDQLGSGDWVRYKLCMCADGTLFKVQVTSQNMGCQISDNPCGNTH [G106T], the “SGCB cell-surface expression functional score (log10)” value is -0.86.
In the case of MAAAAAAAAEQQSSNGPVKKSMREKAVERRSVNKEHNSNFKAGYIPIDEDRLHKTGLRGRKGNLAICVIILLFILAVINLIITLVIWAVIRIGPNGCDSMEFHESPLLRFKQVSDMGVIHPLYKSTVGGRRNENLVITGNNQPIVFQQGTTKLSVENNKTSITSDIGMQFFDPRTQNILFSTDYETHEFHLPSGVKSLNVQKASTERITSNATSDLNIKVDGRAIVRGNEGVFIMGKTIEFHMGGNMELKAENSIILNGSVMVSTTRLPSSSSGDQLGSGDWVRYKLCMCADGTLFKVQVTSQNMGCQISDNPCGNTH [G106P] it was -1.85.

For the origin of these results see the supplement of paper PMC10266784.
